Data reported in patent publication US9617572B2, “Methods of producing 7-carbon chemicals via aromatic compounds” (INVISTA North America S.á r.l., priority 2012, dated 2017).

B1: SEQ ID NO 13: Vibrio fluvialis ω-transaminase, Genbank Accession No. AEA39183.1 (protein, listed as Vibrio fluvialis)
chain: MNKPQSWEARAETYSLYGFTDMPSLHQRGTVVVTHGEGPYIVDVNGRRYLDANSGLWNMVAGFDHKGLIDAAKAQYERFPGYHAFFGRMSDQTVMLSEKLVEVSPFDSGRVFYTNSGSEANDTMVKMLWFLHAAEGKPQKRKILTRWNAYHGVTAVSASMTGKPYNSVFGLPLPGFVHLTCPHYWRYGEEGETEEQFVARLARELEETIQREGADTIAGFFAEPVMGAGGVIPPAKGYFQAILPILRKYDIPVISDEVICGFGRTGNTWGCVTYDFTPDAIISSKNLTAGFFPMGAVILGPELSKRLETAIEAIEEFPHGFTASGHPVGCAIALKAIDVVMNEGLAENVRRLAPRFEERLKHIAERPNIGEYRGIGFMWALEAVKDKASKTPFDGNLSVSERIANTCTDLGLICRPLGQSVVLCPPFILTEAQMDEMFDKLEKALDKVFAEVA
B2: SEQ ID NO 10: Pseudomonas syringae ω-transaminase, Genbank Accession No. AAY39893.1 (protein, listed as Pseudomonas syringae)
chain: MSANNPQTLEWQALSSEHHLAPFSDYKQLKEKGPRIITRAEGVYLWDSEGNKILDGMSGLWCVAIGYGREELADAASKQMRELPYYNLFFQTAHPPVLELAKAISDIAPEGMNHVFFTGSGSEGNDTMLRMVRHYWALKGQPNKKTIISRVNGYHGSTVAGASLGGMTYMHEQGDLPIPGVVHIPQPYWFGEGGDMTPDEFGIWAAEQLEKKILELGVENVGAFIAEPIQGAGGVIVPPDSYWPKIKEILSRYDILFAADEVICGFGRTSEWFGSDFYGLRPDMMTIAKGLTSGYVPMGGLIVRDEIVAVLNEGGDFNHGFTYSGHPVAAAVALENIRILREEKIVERVRSETAPYLQKRLRELSDHPLVGEVRGVGLLGAIELVKDKTTRERYTDKGAGMICRTFCFDNGLIMRAVGDTMIIAPPLVISFAQIDELVEKARTCLDLTLAVLQG
B3: SEQ ID NO 8: Chromobacterium violaceum ω-transaminase, Genbank Accession No. AAQ59697.1 (protein, listed as Chromobacterium violaceum)
chain: MQKQRTTSQWRELDAAHHLHPFTDTASLNQAGARVMTRGEGVYLWDSEGNKIIDGMAGLWCVNVGYGRKDFAEAARRQMEELPFYNTFFKTTHPAVVELSSLLAEVTPAGFDRVFYTNSGSESVDTMIRMVRRYWDVQGKPEKKTLIGRWNGYHGSTIGGASLGGMKYMHEQGDLPIPGMAHIEQPWWYKHGKDMTPDEFGVVAARWLEEKILEIGADKVAAFVGEPIQGAGGVIVPPATYWPEIERICRKYDVLLVADEVICGFGRTGEWFGHQHFGFQPDLFTAAKGLSSGYLPIGAVFVGKRVAEGLIAGGDFNHGFTYSGHPVCAAVAHANVAALRDEGIVQRVKDDIGPYMQKRWRETFSRFEHVDDVRGVGMVQAFTLVKNKAKRELFPDFGEIGTLCRDIFFRNNLIMRACGDHIVSAPPLVMTRAEVDEMLAVAERCLEEFEQTLKARGLA
B4: SEQ ID NO 3: Mycobacterium smegmatis carboxylate reductase, Genbank Accession No. ABK71854.1 (protein, listed as Mycobacterium smegmatis)
chain: MTSDVHDATDGVTETALDDEQSTRRIAELYATDPEFAAAAPLPAVVDAAHKPGLRLAEILQTLFTGYGDRPALGYRARELATDEGGRTVTRLLPRFDTLTYAQVWSRVQAVAAALRHNFAQPIYPGDAVATIGFASPDYLTLDLVCAYLGLVSVPLQHNAPVSRLAPILAEVEPRILTVSAEYLDLAVESVRDVNSVSQLVVFDHHPEVDDHRDALARAREQLAGKGIAVTTLDAIADEGAGLPAEPIYTADHDQRLAMILYTSGSTGAPKGAMYTEAMVARLWTMSFITGDPTPVINVNFMPLNHLGGRIPISTAVQNGGTSYFVPESDMSTLFEDLALVRPTELGLVPRVADMLYQHHLATVDRLVTQGADELTAEKQAGAELREQVLGGRVITGFVSTAPLAAEMRAFLDITLGAHIVDGYGLTETGAVTRDGVIVRPPVIDYKLIDVPELGYFSTDKPYPRGELLVRSQTLTPGYYKRPEVTASVFDRDGYYHTGDVMAETAPDHLVYVDRRNNVLKLAQGEFVAVANLEAVFSGAALVRQIFVYGNSERSFLLAVVVPTPEALEQYDPAALKAALADSLQRTARDAELQSYEVPADFIVETEPFSAANGLLSGVGKLLRPNLKDRYGQRLEQMYADIAATQANQLRELRRAAATQPVIDTLTQAAATILGTGSEVASDAHFTDLGGDSLSALTLSNLLSDFFGFEVPVGTIVNPATNLAQLAQHIEAQRTAGDRRPSFTTVHGADATEIRASELTLDKFIDAETLRAAPGLPKVTTEPRTVLLSGANGWLGRFLTLQWLERLAPVGGTLITIVRGRDDAAARARLTQAYDTDPELSRRFAELADRHLRVVAGDIGDPNLGLTPEIWHRLAAEVDLVVHPAALVNHVLPYRQLFGPNVVGTAEVIKLALTERIKPVTYLSTVSVAMGIPDFEEDGDIRTVSPVRPLDGGYANGYGNSKWAGEVLLREAHDLCGLPVATFRSDMILAHPRYRGQVNVPDMFTRLLLSLLITGVAPRSFYIGDGERPRAHYPGLTVDFVAEAVTTLGAQQREGYVSYDVMNPHDDGISLDVFVDWLIRAGHPIDRVDDYDDWVRRFETALTALPEKRRAQTVLPLLHAFRAPQAPLRGAPEPTEVFHAAVRTAKVGPGDIPHLDEALIDKYIRDLREFGLI

Columns and labels:
Type in all cases: biochemical
[1] = ω-Transaminase activity assay, forward direction (pimelate semialdehyde to 7-aminoheptanoate); conditions: for acceptance of pimelate semialdehyde as substrate (formation of pyruvate from L-alanine, RP-HPLC): cell free extract, 10 mM pimelate semialdehyde, 10 mM L-alanine, pH 7.5, 25° C., 4 h, against empty vector control; for reversibility of ω-transaminase activity: accepts pimelate semialdehyde and synthesizes 7-aminoheptanoate: conclusion from reverse and forward direction assays
Experimental: (§1) A sequence encoding an N-terminal His-tag was added to the genes from Chromobacterium violaceum, Pseudomonas syringae, Rhodobacter sphaeroides, and Vibrio Fluvialis encoding the ω-transaminases of SEQ ID NOs: 8, 10, 11 and 13, respectively (see FIGS. 7F and 7G) such that N-terminal HIS tagged ω-transaminases could be produced. Each of the resulting modified genes was cloned into a pET21a expression vector under control of the T7 promoter and each expression vector was transformed into a BL21[DE3] E. coli host. The resulting recombinant E. coli strains were cultivated at 37° C. in a 250 mL shake flask culture containing 50 mL LB media and antibiotic selection pressure, with shaking at 230 rpm. Each culture was induced overnight at 16° C. using 1 mM IPTG.
(§2) The pellet from each induced shake flask culture was harvested via centrifugation. Each pellet was resuspended and lysed via sonication. The cell debris was separated from the supernatant via centrifugation and the cell free extract was used immediately in enzyme activity assays.
Enzyme activity in the forward direction (i.e., pimelate semialdehyde to 7-aminoheptanoate) was confirmed for the transaminases of SEQ ID NO 10, SEQ ID NO 11 and SEQ ID NO 13. Enzyme activity assays were performed in a buffer composed of a final concentration of 50 mM HEPES buffer (pH=7.5), 10 mM pimelate semialdehyde, 10 mM L-alanine and 100 μM pyridoxyl 5′ phosphate. Each enzyme activity assay reaction was initiated by adding a cell free extract of the ω-transaminase gene product or the empty vector control to the assay buffer containing the pimelate semialdehyde and incubated at 25° C. for 4 h, with shaking at 250 rpm. The formation of pyruvate was quantified via RP-HPLC.

[2] = ω-Transaminase activity assay (7-aminoheptanol to 7-oxoheptanol); conditions: for acceptance of 7-aminoheptanol as substrate (formation of L-alanine, RP-HPLC): cell free extract, 10 mM 7-aminoheptanol, 10 mM pyruvate, pH 7.5, 25° C., 4 h, against empty vector control; for acceptance of 7-oxoheptanol as substrate forming 7-aminoheptanol: concluded from reversibility of the ω-transaminase activity (Example 2)
Experimental: A nucleotide sequence encoding an N-terminal His-tag was added to the Chromobacterium violaceum, Pseudomonas syringae and Rhodobacter sphaeroides genes encoding the ω-transaminases of SEQ ID NOs: 8, 10 and 11, respectively (see FIGS. 7F and 7G) such that N-terminal HIS tagged ω-transaminases could be produced. The modified genes were cloned into a pET21a expression vector under the T7 promoter. Each expression vector was transformed into a BL21[DE3] E. coli host. Each resulting recombinant E. coli strain were cultivated at 37° C. in a 250 mL shake flask culture containing 50 mL LB media and antibiotic selection pressure, with shaking at 230 rpm. Each culture was induced overnight at 16° C. using 1 mM IPTG.
as §2
Enzyme activity assays in the reverse direction (i.e., 7-aminoheptanol to 7-oxoheptanol) were performed in a buffer composed of a final concentration of 50 mM HEPES buffer (pH=7.5), 10 mM 7-aminoheptanol, 10 mM pyruvate, and 100 μM pyridoxyl 5′ phosphate. Each enzyme activity assay reaction was initiated by adding cell free extract of the ω-transaminase gene product or the empty vector control to the assay buffer containing the 7-aminoheptanol and then incubated at 25° C. for 4 h, with shaking at 250 rpm. The formation of L-alanine was quantified via RP-HPLC.

[3] = ω-Transaminase activity assay, reverse direction (7-aminoheptanoate to pimelate semialdehyde); conditions: cell free extract, 10 mM 7-aminoheptanoate, 10 mM pyruvate, pH 7.5, 25° C., 4 h, against empty vector control
Experimental: as §1, §2
Enzyme activity assays in the reverse direction (i.e., 7-aminoheptanoate to pimelate semialdehyde) were performed in a buffer composed of a final concentration of 50 mM HEPES buffer (pH =7.5), 10 mM 7-aminoheptanoate, 10 mM pyruvate and 100 μM pyridoxyl 5′ phosphate. Each enzyme activity assay reaction was initiated by adding cell free extract of the ω-transaminase gene product or the empty vector control to the assay buffer containing the 7-aminoheptanoate and incubated at 25° C. for 4 h, with shaking at 250 rpm. The formation of L-alanine from pyruvate was quantified via RP-HPLC.

[4] = Carboxylate reductase activity assay (N7-acetyl-7-aminoheptanoate to N7-acetyl-7-aminoheptanal); conditions: purified enzyme enhanced by sfp gene product, 2 mM N7-acetyl-7-aminoheptanoate, 1 mM ATP, 1 mM NADPH, pH 7.5, room temperature, 20 min, against empty vector control
Experimental: The activity of each of the N-terminal His-tagged carboxylate reductases of SEQ ID NOs: 3, 6, and 7 (see Example 4, and FIGS. 7B, 7E, and 7F) for converting N7-acetyl-7-aminoheptanoate to N7-acetyl-7-aminoheptanal was assayed in triplicate in a buffer composed of a final concentration of 50 mM HEPES buffer (pH=7.5), 2 mM N7-acetyl-7-aminoheptanoate, 10 mM MgCl2, 1 mM ATP, and 1 mM NADPH. The assays were initiated by adding purified carboxylate reductase and phosphopantetheine transferase or the empty vector control to the assay buffer containing the N7-acetyl-7-aminoheptanoate then incubated at room temperature for 20 min. The consumption of NADPH was monitored by absorbance at 340 nm.

| Molecule | acceptance of pimelate semialdehyde as substrate (formation of pyruvate from L-alanine, RP-HPLC) [1] | reversibility of ω-transaminase activity: accepts pimelate semialdehyde and synthesizes 7-aminoheptanoate [1] | acceptance of 7-aminoheptanol as substrate (formation of L-alanine, RP-HPLC) [2] | acceptance of 7-oxoheptanol as substrate forming 7-aminoheptanol [2] | acceptance of 7-aminoheptanoate as substrate (formation of L-alanine from pyruvate, RP-HPLC) [3] | acceptance of N7-acetyl-7-aminoheptanoate as substrate (consumption of NADPH, absorbance at 340 nm) [4] |
| --- | --- | --- | --- | --- | --- | --- |
| SEQ ID NO 11: Rhodobacter sphaeroides ω-transaminase, Genbank Accession No. ABA81135.1 | accepted pimelate semialdehyde as substrate | accepted pimelate semialdehyde as substrate and synthesized 7-aminoheptanoate | accepted 7-aminoheptanol as substrate | accept 7-oxoheptanol as substrate and form 7-aminoheptanol | accepted 7-aminoheptanote as substrate |  |
| B1 | accepted pimelate semialdehyde as substrate | accepted pimelate semialdehyde as substrate and synthesized 7-aminoheptanoate |  |  | accepted 7-aminoheptanote as substrate |  |
| B2 | accepted pimelate semialdehyde as substrate | accepted pimelate semialdehyde as substrate and synthesized 7-aminoheptanoate | accepted 7-aminoheptanol as substrate | accept 7-oxoheptanol as substrate and form 7-aminoheptanol | accepted 7-aminoheptanote as substrate |  |
| B3 |  | accepted pimelate semialdehyde as substrate and synthesized 7-aminoheptanoate | accepted 7-aminoheptanol as substrate | accept 7-oxoheptanol as substrate and form 7-aminoheptanol | accepted 7-aminoheptanote as substrate |  |
| B4 |  |  |  |  |  | accepted N7-acetyl-7-aminoheptanoate as substrate |
